# Laboratory results from patent US10428140B2, “Anti-EphA4 antibody” (EISAI R&D MANAGEMENT CO., LTD., priority 2015, dated 2019).
# Numbering of substitutions follows the chain as printed.
# T1: human EphB3 (Homo sapiens, UniProt P54753)
# T1 construct: a protein of the extracellular region of each human Eph receptor fused with the SEAP protein and the His tag; made in house; host or cells: Expi293F cells
# T1 sequence (P54753 34-559 limits assumed): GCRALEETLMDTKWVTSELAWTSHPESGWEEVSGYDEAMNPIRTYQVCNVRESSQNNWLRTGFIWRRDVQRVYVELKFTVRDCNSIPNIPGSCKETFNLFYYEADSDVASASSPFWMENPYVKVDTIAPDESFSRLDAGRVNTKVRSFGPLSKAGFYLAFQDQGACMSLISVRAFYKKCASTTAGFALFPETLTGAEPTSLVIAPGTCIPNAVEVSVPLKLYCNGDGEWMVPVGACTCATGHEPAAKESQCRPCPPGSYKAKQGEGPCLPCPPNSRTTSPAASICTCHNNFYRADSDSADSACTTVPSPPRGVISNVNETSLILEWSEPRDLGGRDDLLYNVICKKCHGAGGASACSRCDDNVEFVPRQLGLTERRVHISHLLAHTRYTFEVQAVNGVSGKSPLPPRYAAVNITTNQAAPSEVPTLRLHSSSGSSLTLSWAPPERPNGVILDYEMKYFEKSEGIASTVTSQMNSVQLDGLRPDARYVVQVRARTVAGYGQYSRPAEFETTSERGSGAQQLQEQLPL
# T2: human EphA3 (Homo sapiens, UniProt P29320)
# T2 construct: a protein of the extracellular region of each human Eph receptor fused with the SEAP protein and the His tag; made in house; host or cells: Expi293F cells (culture supernatant)
# T2 sequence (P29320 21-541 limits assumed): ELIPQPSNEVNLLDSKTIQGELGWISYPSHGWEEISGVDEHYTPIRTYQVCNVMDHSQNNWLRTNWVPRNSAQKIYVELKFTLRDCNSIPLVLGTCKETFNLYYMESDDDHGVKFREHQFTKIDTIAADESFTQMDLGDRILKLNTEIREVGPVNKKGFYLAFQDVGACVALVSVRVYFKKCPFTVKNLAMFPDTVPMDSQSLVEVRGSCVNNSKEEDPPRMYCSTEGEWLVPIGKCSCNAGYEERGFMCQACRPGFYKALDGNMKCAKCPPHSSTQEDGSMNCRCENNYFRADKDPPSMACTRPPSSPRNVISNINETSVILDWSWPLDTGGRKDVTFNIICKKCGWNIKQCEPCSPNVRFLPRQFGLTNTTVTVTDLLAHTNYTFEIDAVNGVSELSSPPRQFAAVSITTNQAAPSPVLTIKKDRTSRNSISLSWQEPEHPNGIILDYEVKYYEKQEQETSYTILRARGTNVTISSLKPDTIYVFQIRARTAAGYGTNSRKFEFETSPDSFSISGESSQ
# T3: human EphA7 (Homo sapiens, UniProt Q15375)
# T3 construct: a protein of the extracellular region of each human Eph receptor fused with the SEAP protein and the His tag; made in house; host or cells: Expi293F cells (culture supernatant)
# T3 sequence (Q15375 28-555 limits assumed): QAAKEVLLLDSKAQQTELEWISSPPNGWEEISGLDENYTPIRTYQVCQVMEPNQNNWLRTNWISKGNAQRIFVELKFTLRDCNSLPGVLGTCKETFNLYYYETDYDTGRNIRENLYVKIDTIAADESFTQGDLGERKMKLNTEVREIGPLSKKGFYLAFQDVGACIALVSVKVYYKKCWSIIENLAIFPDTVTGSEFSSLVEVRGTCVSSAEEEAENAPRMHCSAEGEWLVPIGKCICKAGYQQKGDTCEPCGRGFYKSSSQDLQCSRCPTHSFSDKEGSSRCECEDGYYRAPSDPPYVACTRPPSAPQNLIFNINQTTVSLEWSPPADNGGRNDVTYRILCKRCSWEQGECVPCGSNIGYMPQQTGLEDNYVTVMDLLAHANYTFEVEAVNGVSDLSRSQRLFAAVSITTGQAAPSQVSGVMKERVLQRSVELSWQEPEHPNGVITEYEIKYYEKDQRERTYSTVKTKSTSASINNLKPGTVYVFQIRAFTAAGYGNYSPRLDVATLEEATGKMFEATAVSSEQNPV
# B1: 139 (antibody)
# VH: QVQLVQSGSELKKPGASVKVSCKASGYTFTDYSMHWVRQAPGQGLEWMGWINTETGEPTYAQGFTGRFVFSLDTSVSTAYLQISSLKAEDTAVYYCARIPLYYYGSRYWYFDVWGQGTTVTVSS
# VL: DIQMTQSPSSLSASVGDRVTITCRASENIYRNLAWYQQKPGKAPKLLVYAATNLADGVPSRFSGSGSGTDYTLTISSLQPEDFATYYCQHFWGTPWTFGQGTKVEIK
# chain: ASTKGPSVFPLAPSSRSTSESTAALGCLVKDYFPEPVTVSWNSGALTSGVHTFPAVLQSSGLYSLSSVVTVPSSNFGTQTYTCNVDHKPSNTKVDKTVERKSCVECPPCPAPPAAAPSVFLFPPKPKDTLMISRTPEVTCVVVDVSHEDPEVQFNWYVDGVEVHNAKTKPREEQFNSTFRVVSVLTVVHQDWLNGKEYKCKVSNKGLPAPIEKTISKTKGQPREPQVYTLPPSREEMTKNQVSLTCLVKGFYPSDIAVEWESNGQPENNYKTTPPMLDSDGSFFLYSKLTVDKSRWQQGNVFSCSVMHEALHNHYTQKSLSLSPG
# modifications: synthetic humanized antibody heavy chain variable region sequence; synthetic humanized antibody light chain variable region sequence; synthetic antibody constant region sequence
# B2: 152 (antibody, V domains shown)
# VH: B1 VH
# VL: B1 VL with V48L, P80S
# modifications: synthetic humanized antibody heavy chain variable region sequence; synthetic humanized antibody light chain variable region sequence
# B3: 143 (antibody, V domains shown)
# VH: B1 VH with V2I, E46K, Q62D, G63D, T65K
# VL: B1 VL
# modifications: synthetic humanized antibody heavy chain variable region sequence; synthetic humanized antibody light chain variable region sequence
# B4: 140 (antibody, V domains shown)
# VH: B1 VH with E46K
# VL: B1 VL
# modifications: synthetic humanized antibody heavy chain variable region sequence; synthetic humanized antibody light chain variable region sequence
# B5: 153 (antibody, V domains shown)
# VH: B1 VH with E46K
# VL: B1 VL with V48L, P80S
# modifications: synthetic humanized antibody heavy chain variable region sequence; synthetic humanized antibody light chain variable region sequence
# B6: 151 (antibody, V domains shown)
# VH: B1 VH with V2I, E46K
# VL: B1 VL with V48L, P80S
# modifications: synthetic humanized antibody heavy chain variable region sequence; synthetic humanized antibody light chain variable region sequence
# B7: 138 (antibody, V domains shown)
# VH: B1 VH with V2I, E46K
# VL: B1 VL
# modifications: synthetic humanized antibody heavy chain variable region sequence; synthetic humanized antibody light chain variable region sequence
# B8: 142 (antibody, V domains shown)
# VH: B1 VH with E46K, Q62D, G63D, T65K
# VL: B1 VL
# modifications: synthetic humanized antibody heavy chain variable region sequence; synthetic humanized antibody light chain variable region sequence
# B9: 141 (antibody, V domains shown)
# VH: B1 VH with Q62D, G63D, T65K
# VL: B1 VL
# modifications: synthetic humanized antibody heavy chain variable region sequence; synthetic humanized antibody light chain variable region sequence
# Molecular target: T4, human EphA5 (Homo sapiens, UniProt P54756)
# T4 construct: a protein of the extracellular region of each human Eph receptor fused with the SEAP protein and the His tag; made in house; host or cells: Expi293F cells (culture supernatant)
# Test: Selectivity ELISA of humanized antibodies for human Eph receptor
# Format: binding
# Conditions: coated protein 1 nM
# Summary of the method: (§1)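 Extracellular domains of human Eph receptors fused to SEAP-His were expressed in Expi293F cells for 5 days and captured from supernatant (1 nM final) on anti-His-coated plates. Humanized anti-EphA4 antibodies were incubated 1 h at room temperature, then HRP anti-IgG secondary, TMB substrate, and absorbance at 450 nm.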
# T4 sequence (P54756 25-573 limits assumed): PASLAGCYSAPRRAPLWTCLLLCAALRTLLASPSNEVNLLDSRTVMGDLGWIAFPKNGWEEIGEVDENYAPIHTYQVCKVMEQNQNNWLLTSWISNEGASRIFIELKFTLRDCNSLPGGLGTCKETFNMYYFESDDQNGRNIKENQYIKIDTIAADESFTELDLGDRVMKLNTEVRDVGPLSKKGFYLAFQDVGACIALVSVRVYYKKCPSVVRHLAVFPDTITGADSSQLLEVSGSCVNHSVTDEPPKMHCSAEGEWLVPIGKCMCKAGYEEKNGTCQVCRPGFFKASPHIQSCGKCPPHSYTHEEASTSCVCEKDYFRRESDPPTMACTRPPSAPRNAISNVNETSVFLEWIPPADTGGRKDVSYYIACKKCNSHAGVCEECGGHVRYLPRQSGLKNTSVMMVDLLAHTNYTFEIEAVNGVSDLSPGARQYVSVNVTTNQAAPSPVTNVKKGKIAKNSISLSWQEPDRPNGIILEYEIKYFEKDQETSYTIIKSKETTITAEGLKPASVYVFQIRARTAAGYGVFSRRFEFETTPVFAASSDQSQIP
row,"hEphA5-SEAP-: absorbance at 450 nm, percentage with respect to hEphA4-SEAP-His as 100%",Molecule
1,5.7%,B1
2,5.8%,B2
3,6.1%,B3
4,5.4%,B4
5,6.1%,B5
6,7.0%,B6
7,5.1%,B7
8,5.7%,B8
9,5.3%,B9

# Molecular target: T1, human EphB3
# Test: as above
# Format: binding
# Conditions: coated protein 1 nM
# Summary of the method: as §1
row,"hEphB3-SEAP-: absorbance at 450 nm, percentage with respect to hEphA4-SEAP-His as 100%",Molecule
1,5.6%,B1
2,6.0%,B2
3,5.9%,B3
4,5.4%,B4
5,5.9%,B5
6,7.3%,B6
7,5.1%,B7
8,5.6%,B8
9,5.2%,B9

# Molecular target: T2, human EphA3
# Test: as above
# Format: binding
# Conditions: coated protein 1 nM
# Summary of the method: as §1
row,"hEphA3-SEAP-: absorbance at 450 nm, percentage with respect to hEphA4-SEAP-His as 100%",Molecule
1,5.9%,B1
2,5.8%,B2
3,5.6%,B3
4,5.5%,B4
5,6.1%,B5
6,6.9%,B6
7,4.9%,B7
8,5.5%,B8
9,5.3%,B9

# Molecular target: SEAP-His (Homo sapiens, UniProt P05187)
# Test: as above
# Format: binding
# Conditions: coated protein 1 nM
# Summary of the method: as §1
# Chain of SEAP-His (P05187 23-511 limits assumed): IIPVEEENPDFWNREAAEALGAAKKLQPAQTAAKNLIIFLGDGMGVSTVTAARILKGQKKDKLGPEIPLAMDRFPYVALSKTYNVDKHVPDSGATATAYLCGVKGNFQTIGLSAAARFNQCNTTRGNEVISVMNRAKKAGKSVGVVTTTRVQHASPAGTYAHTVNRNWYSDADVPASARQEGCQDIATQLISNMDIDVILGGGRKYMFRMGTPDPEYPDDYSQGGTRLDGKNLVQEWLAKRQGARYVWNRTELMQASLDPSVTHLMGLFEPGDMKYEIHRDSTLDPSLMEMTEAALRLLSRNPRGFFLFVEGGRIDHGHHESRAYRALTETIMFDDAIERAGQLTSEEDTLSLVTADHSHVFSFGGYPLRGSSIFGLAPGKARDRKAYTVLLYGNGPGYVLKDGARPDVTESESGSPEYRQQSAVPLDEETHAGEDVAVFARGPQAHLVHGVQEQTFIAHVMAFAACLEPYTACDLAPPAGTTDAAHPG
row,"SEAP-His: absorbance at 450 nm, percentage with respect to hEphA4-SEAP-His as 100%",Molecule
1,5.7%,B1
2,5.4%,B2
3,6.3%,B3
4,5.4%,B4
5,5.9%,B5
6,6.8%,B6
7,5.1%,B7
8,5.8%,B8
9,5.0%,B9

# Molecular target: T3, human EphA7
# Test: as above
# Format: binding
# Conditions: coated protein 1 nM
# Summary of the method: as §1
row,"hEphA7-SEAP-: absorbance at 450 nm, percentage with respect to hEphA4-SEAP-His as 100%",Molecule
1,5.5%,B1
2,5.7%,B2
3,5.8%,B3
4,5.2%,B4
5,6.2%,B5
6,6.8%,B6
7,4.9%,B7
8,5.5%,B8
9,5.3%,B9
